Measured values published in the DeepSol protein solubility set.

Test: soluble on expression in E. coli; label from the status in PepcDB or PDB records

Sequence	soluble on expression in E. coli
MGSDKIHHHHHHMKKAAIITIGSELLEGLILNKNAQFLCQELKNLGYRVVKVSTVGDDLISISEEVKTLLLKVDLLILTGGLGPTQDDLTRDAVAKVLNRSLKLNEELLSKIKEKIKKYHSEIPQNIERQALVIDGAEVLDNPVGSAPGQLLTVDGKIVILLPGPPRELIPMFNALKDRLRTPDALYQVVLKYYSIPEAVLEDLLKDILYSQNIVEVATMADHVEGVRLRLTTHMKNKEYLDEMVKKILDKTGEHLYGVNDEKMEEVVVRLLKDRKKTLAVAESCTGGMLSSLVVNVPGASEVFIGGVVAYSNDLKKHILGVREDTLKKHGAVSEECVQEMTEGLKKLTGADICVSISGIAGPSGGTPEKPVGTVFIDIFEHEHITMRYNFTGDRNMIRTRSAMMALENLRKYLKGRERV	not soluble
MSLRIVFKIGSNLLETDEGDIDLSFLSKLAEGIKKLHSFGDKVLIVSSGAVLSGAKKLGIKEKPKDLTLKQALASVGQSYLMHLYDTIFSNYGLKVGQVLLTKDVFSKEKEERFKNAKSTLEKLLELGVVPVINENDAVAVEELVFGDNDFLAVYVSFMVNADLLVIFSSAGGLKDDKDRIIPVVEDIEKVFKYVRGTGTSFGTGGMRSKLEATRLATTLNIPVIITSKEENILDLRNLKTKGTLFKPSKRKLRNALKVIATLEEPKGIIVVDRGAQEALKAGKSLLPAGVVSVQGNFKRGDVVSIQNEEGLIIGKGKVNFSSEEIEKIKGLKTSEVRKLLNTTKDEVIHRDNMVIFLEGHHHHHH	not soluble
MGSDKIHHHHHHMTHPDGLFYQLIQDLAQGKGLPHLIWRLSQILNRPVLLTNSVHRVLVFHDPHHLNLDLDEFLYVPPVKLDEADFLNRSEHSLHHGQLTLNGQVFPFVYLPLLAGDYCLGYIFVLETYPLADSLKPKSLSAEDKETIFEASMPLLLCLKNSSEVSLRQEQYRDDFIRDILYNNYDSKAAIHEKAKSWGWNLQGSLLALVIDLPDRDFKTAREILPRLFNHSSPISAYINLQLVIILNINGLKKVKLKTALNNFINSFLDRLADHGKDRSSIGIGIGSGVPSITDLYKSYQEAKVAWELGKVFDHKSVCYFEEMGFLKFIFTQPARELEEFSQRVLGPLLEYDQAENTGLLDSLRVFIEYKCQIAECSKALYVHENTLRNRIKKIEQVTGFDLRRVDHMVNVYIALQVLNLGKDD	not soluble
PSTAAWFNAREQAKLVDLYDSKIENATPLSAEQLLELAHRYNDRLTVGAALDPWANVPRGAGKEDGDGMAYKDQLRVDRTDVMARIRIPSIKVDLPIYHGTSDNTLKKGAGHLEGTSLPVGGPRTHSVITAHRGLAEATMFTNLNKVGVGDRFTIEVMGEVLTYEVRETRVVSPEDTRFLQTQDDRDLVTLVTCTPLGINTHRILVTAERITPTPQSDIDAARQASQIGFP	not soluble
GPGSMTHDSRTPQGKSRVSGGSSCFPSGYLNNESFDLNSETDHVSANSSTCHPAESYHLLLPRELQTPAQHFTTPEIPEISSHSPLCSALFSSVTEMQHQSVLEVGVASDQGIRSSMEDEHVTVVEPEVCFFGIYDGHGGRQCAEYVRARLHEITLAHECLKTDPRKAISDAFAQVEREFLGQNTNDMSSAGCVCAAAVVQGSVLTVGNVGDCEVVLARAGQPVLLTVKHNPSCNDAEATRVKKAGGCIFNCRVGHPRFNPRMCSLAVSRAVGDAGFKLEEYTNGKPSGIIAVADTSEVLLAKDDEFLILACDGLWDTMSYAEAVELATAYMASGADANSVADQLVGEALRRGTRDNVTAIFVRLGGSAQAGLGDANK	not soluble
NEHLGGIYDYLRTRRMQTLTELERTTTIETKTTREAIPETEAKADYRRQKEVAKQLRTLERTVATCEERIGKLESELQAIEMLLQDPKHATDANLFERYAGMKQELEKAMEDWEQASEALSEAQG	not soluble
MVIILRHVRVFNGVNECDIYLIGTAHVSKDSIEEVEKIISSVSPEGIAVELDDRRFFSLITNEEKKVDLKKVLKEGNFLKFFIYLILANSQKKIGESFGIKPGSEMKKAIEIASKYGLPIYLIDRDIDITLSRLMDRMTFKEKMKIFWELLNSDEEDLELDDDLLNDMVKNPEKFIKLLKEISPTIYEVLVDERDRFMAKRLFELSKNKNSLVAVVGAGHVEGIVRYLKKLENGNDIDLMELIKVKKRK	not soluble
MAHHHHHHMKSMRAVTMRAFGDVDVMHISEVTGVSLSRPSDVIIRVMAAGVNRADVSQRQGHYPPPKGSSEILGMEVSGVVEKVGENVKRFKEGDRVMALLTGGGYAEMAVAHEGSVMKIPEGYSFVEAAAIPEAFLTAWQALKLHGNLQKGQHMLFHAGASGVGTAALQLAEKYFRATAIATCSSGKVEFCKRFAKFVVDRSPDASGKCFSSKVRDAVKGETVNLIVDPVVGGTYLQEDGEVLAQDGKVVLLAFMGGAKVSLDVMPFFRKRASVIFSKLRDQTDEYKEALVRSFEEEVIPYMTRREIVPVVQCTYALEEVAAAHKLMENNKSNGKVILTVGKAE	soluble
MGSDKIHHHHHHMQEIELKFLVPEPRLKGLMRQAKIKSSQVTQLAAHYYDTPDQQLAQAGIGLRIRQEGNAWVQTIKASGDGIAARLEHNLTLDNEQVQAMLDNNELLPDLTIYKDTPIAPALADFKLKKLAKQLTRLYVTDVERTTRLLIKDTGDEVVNSIEMAYDYGEIIHGTDDTQRDVIQEIEFELISGELDFLFSTAKTWCQRYKLCLSTVTKAERGGRLIKGQSHTPATAADLSELNIDKKIGMPAFLRAVVHNCLLQILPNSSAIVAGSKDNEHLLQLSIGIERLHTVLQAFDSFSDEINPDWSAILQQTATLLTEYRKLAYLSTHIEPRLQKDGAPIVDWTADIDALKITPIAAISTNHFQIMLLELIAFTMSDPSLEPQTDKLAINKLEKILVKYHEKLLKAEQYLEDRYDESDSELENESIIKALHNLHDHLKDLRYISELVAPLYGKKKTKRWLKRTVKAQKTLGQQLNMSDYQQYYQSKASSDFAALYAAGWLNAVLIPMEKATEKRLDKFYACSVFW	not soluble
MAYLVAVTACVSGVAHTYMAAERLEKLCLLEKWGVSIETQGALGTENRLADEDIRRADVALLITDIELAGAERFEHCRYVQCSIYAFLREPQRVMSAVRKVLSAPQQTHLILE	soluble
MMNKLPHETRVVIGMSGGVDSSVAALLLKEQGYDVIGIFMKNWDDTDENGVCTATEDYNDVIEVCNQIGIPYYAVNFEKQYWDKVFTYFLDEYRAGRTPNPDVMCNKEIKFKAFLEHAIALGADYVATGHYARVAYMDGEYKMLRGVDDNKDQTYFLNQLSQEQLSKTMFPLGELKKPQIREMAKEAGLATAAKKDSTGICFIGERNFKDFLSNYLPAQPGVMQTLSGEVKGKHDGLMYYTIGQRHGLGIGGNGDPWFAVGKNLKENILYVDQGFHNELLYGDEVIATNVGWVSNKEKETEFKCTAKFRYRQEDNKVTVQIVDENTVRILCDEPIRAITPGQAVVFYDGDECLGGATIDEVYRSGKKLDYLG	not soluble
MSLGAMCFYHYWFLGKQLLEKPAEILLENKEINMPFLFSWANEPWTRAWDGSHRNVLMPQSYGTEADWEKHFNYLKPFFEDERYLKHDGKPIFIIYRTANFALCNEWISCWRELSKNTSFKDIHFVSSYTSFENDPRKLDFDAHLYFEPMCTVGHNLGYFNKKIKKINARLKRVINPKVWTTYVENTLQYDYLWEKILKKKINKTQYPGAFVDWDNSARKKSRALVIHGGSPKKFGLYLDKLYKRSIENNCPFLFINAWNEWAEGTYLEPDEKNKYSYLEELKKVIEKYEVEGHHHHHH	not soluble
SNAMNHLPEKMRPYRDLLEKSAKEYVKLNVRKGKTGRYDSKIAGDPYFPKHETYPTDENGQPMKLLAQINFSHIPQLDGYPSSGILQFYISVHDDVYGLNFDDRCEQKNFRVIYFENIVENDDELVSDFSFIGTGECDFPILSEAAVEPVKSSEWVLPTDFQFEQYTGMETMEFFGQFGEDEEDIYNELAENGFGHKIGGYASFTQHDPREYAYKEHTIMLLQIDSDDDIDSMWGDVGIANFFITPEDLRKKDFSNVLYNWDCS	soluble
MKKLTFEQLRSVQMSILDRVHLFCERHDLEYSLAGGTLLGAIRHKGYIPWDDDIDIMMPREDYEYLLQNFAKEYPDFTFFNLDTKHNPYPFLFSKLSLNDSVISNGRIKGVGINIDIFPIDSLGKEKGAAKLRFSLMKAINFFARIQRSRHDRANPIVNIAFRLFQKCLKLLPKKWFLSAIKGLCSTCSVNDDGYAVSIGSSYLAKEFTESSLYHDYTSCPFEDRQYKCIARYDDYLSMIYGDYMQLPKEQDRENHDNVGFIKEHLLPMLEHHHHHH	not soluble
